# From patent publication US20220324939A1 (Regeneron, published 2022)
# T1: MAGE-A8 peptide on HLA-A*02:01 (human)
# T1 peptide: GLYDGREHSV
# T2: MAGE-A4 peptide on HLA-A*02:01 (human)
# T2 peptide: GVYDGREHTV
# Tests used:
# [1] = molecular target: T3, soluble HLA-A2 MAGE-A4 (…) tetramer (human); experiment: flow cytometry tetramer staining; % with MAGE-A4 tetramer divided by % with MAGE-A8 tetramer (reference)
# T3 construct: Bought tetramer reagent; also called MAGE-A4/HLA tetramer reagent; HLA-A02:01 MAGE-A4 tetramer
# Method: (§1) Samples were then analyzed on an LSRFortessa X-20 (BD Biosciences, San Jose, Calif.). […] However, a more stringent cutoff, such as 3%, could be used to separate out Ag+ TCRs that behave better in the binding assay. Ag+ TCRs were determined by Next Generation Sequencing.
# [2] = molecular target: T3, soluble HLA-A2 MAGE-A4 (…) tetramer; experiment: flow cytometry, HLA-A2 MAGE-A4 (…) tetramer staining of CHO cells transfected with the TCR
# Method: as §1
# [3] = molecular target: T1, MAGE-A8 peptide on HLA-A*02:01; experiment: multimer staining
# [4] = molecular target: T2, MAGE-A4 peptide on HLA-A*02:01; experiment: multimer staining
# [5] = molecular target: T4, soluble HLA-A2 MAGE-A8 (…) tetramer (human); experiment: flow cytometry, HLA-A2 MAGE-A8 (…) tetramer staining of CHO cells transfected with the TCR
# T4 construct: Bought tetramer reagent; also called MAGE-A8/HLA tetramer reagent; HLA-A02:01 MAGE-A8 tetramer
# Method: as §1
MAGE-A4/MAGE-A8 (ratio of % tetramer in Ag+ gate) [1],% tetramer in Ag+ gate (MAGE-A4) [2] [%],binding result [3],binding result [4],% tetramer in Ag+ gate (MAGE-A8) [5] [%],Binder
1150,11.5,no recognition,recognises,,"PN45515 (TCR, V domains shown, stained with anti-mouse TCR constant region H57-597; full-length chains on transfected CHO cells; also called TCR No. 39) V domain 1: DAKTTQPPSMDCAEGRAANLPCNHSTISGNEYVYWYRQIHSQGPQYIIHGLKNNETNEMASLIITEDRKSSTLILPHATLRDTAVYYCIVRPYNAGNNRKLIWGLGTSLAVNP V domain 2: DVKVTQSSRYLVKRTGEKVFLECVQDMDHENMFWYRQDPGLGLRLIYFSYDVKMKEKGDIPEGYSVSREKKERFSLILESASTNQTSMYLCASSFGGGYYGYTFGSGTRLTVV"
991,56.5,,recognises,,"PN45593 (TCR, V domains shown, stained with anti-mouse TCR constant region H57-597; full-length chains on transfected CHO cells; also called TCR No. 40) V domain 1: AQKITQTQPGMFVQEKEAVTLDCTYDTSDPSYGLFWYKQPSSGEMIFLIYQGSYDQQNATEGRYSLNFQKARKSANLVISASQLGDSAMYFCAMREGPGNNARLMFGDGTQLVVKP V domain 2: NAGVTQTPKFRVLKTGQSMTLLCAQDMNHEYMYWYRQDPGMGLRLIHYSVGEGTTAKGEVPDGYNVSRLKKQNFLLGLESAAPSQTSVYFCASSYWDRGSPLHFGNGTRLTVT"
1.43,94.7,recognises,recognises,66.3,"PN45557 (TCR, V domains shown, full-length chains on transfected CHO cells; also called TCR No. 52) V domain 1: AQKITQTQPGMFVQEKEAVTLDCTYDTSDPSYGLFWYKQPSSGEMIFLIYQGSYDQQNATEGRYSLNFQKARKSANLVISASQLGDSAMYFCAMREGPGSGNTGKLIFGQGTTLQVKP V domain 2: NAGVTQTPKFRILKIGQSMTLQCAQDMNHNYMYWYRQDPGMGLKLIYYSVGAGITDKGEVPNGYNVSRSTTEYFPLRLELAAPSQTSVYFCASSYSEWQNYGYTFGSGTRLTVV"
18.7,3.18,,recognises,,"PN45581 (TCR, V domains shown, stained with anti-mouse TCR constant region H57-597; full-length chains on transfected CHO cells; also called TCR No. 44) V domain 1: AQKITQTQPGMFVQEKEAVTLDCTYDTSDPSYGLFWYKQPSSGEMIFLIYQGSYDQQNATEGRYSLNFQKARKSANLVISASQLGDSAMYFCAMREGPGNNARLMFGDGTQLVVKP V domain 2: EAQVTQTPRYLITVTGKKLTVTCSQNMNHEYMSWYRQDPGLGLRQIYYSMNVEVTDKGDVPEGYKVSRKEKRNFPLILESPSPNQTSLYFCASSLWTGGGYTFGSGTRLTVV"
9.92,12.3,,recognises,1.24,"PN45418 (TCR, V domains shown, stained with anti-mouse TCR constant region H57-597; full-length chains on transfected CHO cells; also called TCR No. 46) V domain 1: EDQVTQSPEALRLQEGESSSLNCSYTVSGLRGLFWYRQDPGKGPEFLFTLYSAGEEKEKERLKATLTKKESFLHITAPKPEDSATYLCAVQPSYSGAGSYQLTFGKGTKLSVIP V domain 2: EAQVTQNPRYLITVTGKKLTVTCSQNMNHEYMSWYRQDPGLGLRQIYYSMNVEVTDKGDVPEGYKVSRKEKRNFPLILESPSPNQTSLYFCASSPGTGGFSPLHFGNGTRLTVT"
2.5,16,recognises,recognises,6.39,"PN45489 (TCR, V domains shown, stained with anti-mouse TCR constant region H57-597; full-length chains on transfected CHO cells; also called TCR No. 48) V domain 1: TQLLEQSPQFLSIQEGENLTVYCNSSSVFSSLQWYRQEPGEGPVLLVTVVTGGEVKKLKRLTFQFGDARKDSSLHITAAQPGDTGLYLCAEDGGSQGNLIFGKGTKLSVKP V domain 2: DVKVTQTSRYLVKRTGEKVFLECVQDMDHENMFWYRQDPGLGLRLIYFSYDVKMKEKGDIPEGYSVSREKKERFSLILESASTNQTSMYLCASSLQGRYYGYTFGSGTRLTVV"
2.08,34.7,recognises,recognises,16.7,"PN45460 (TCR, V domains shown, full-length chains on transfected CHO cells; also called TCR No. 49) V domain 1: GNSVTQMEGPVTLSEEAFLTINCTYTATGYPSLFWYVQYPGEGLQLLLKATKADDKGSNKGFEATYRKETTSFHLEKGSVQVSDSAVYFCALSDTRDDKIIFGKGTRLHILP V domain 2: EAQVTQSPRYLITVTGKKLTVTCSQNMNHEYMSWYRQDPGLGLRQIYYSMNVEVTDKGDVPEGYKVSRKEKRNFPLILESPSPNQTSLYFCASSPGTGGFSPLHFGNGTRLTVT"
1.97,3.7,recognises,recognises,1.88,"PN45494 (TCR, V domains shown, full-length chains on transfected CHO cells; also called TCR No. 50) V domain 1: GNSVTQIEGPVTLSEEAFLTINCTYTATGYPSLFWYVQYPGEGLQLLLKATKADDKGSNKGFEATYRKETTSFHLEKGSVQVSDSAVYFCALSDTRDDKTIFGKGTRLHILP V domain 2: DVKVTQSSRYLVKRTGEKVFLECVQDMDHENMFWYRQDPGLGLRLIYFSYDVKMKEKGDIPEGYSVSREKKERFSLILESASTNQTSMYLCASSLQGRYYGYTFGSGTRLTVV"
1.21,87.9,recognises,recognises,72.9,"PN45481 (TCR, V domains shown, full-length chains on transfected CHO cells; also called TCR No. 54) V domain 1: GNSVTQMEGPVTLSEEAFLTINCTYTATGYPSLFWYVQYPGEGLQLLLKATKADDKGSNKGFEATYRKETTSFHLEKGSVQVSDSAVYFCALSDTRDDKIIFGKGTRLHILP V domain 2: DVKVTQSSRYLVKRTGEKVFLECVQDMDHENMFWYRQDPGLGLRLIYFSYDVKMKEKGDIPEGYSVSREKKERFSLILESASTNQTSMYLCASSLQGRYYGYTFGSGTRLTVV"
1.23,74.8,recognises,recognises,60.6,"PN45546 (TCR, V domains shown, full-length chains on transfected CHO cells; also called TCR No. 53) V domain 1: AQTVTQSQPEMSVQEAETVTLSCTYDTSESDYYLFWYKQPPSRQMILVIRQEAYKQQNATENRFSVNFQKAAKSFSLKISDSQLGDAAMYFCAYRSGAGGTSYGKLTFGQGTILTVHP V domain 2: DAGVTQSPTHLIKTRGQQVTLRCSPISGHKSVSWYQQVLGQGPQFIFQYYEKEERGRGNFPDRFSARQFPNYSSELNVNALLLGDSALYLCASSIRDTYGYTFGSGTRLTVV"
